We go through four molecules from patent US20160354479A1 (ESBATECH AN ALCON BIOMEDICAL RESEARCH UNIT, published 2016).

For one assay, the target named is T1, Human TNF alpha (human, UniProt P01375 77-233).
T1 construct: Coated on the ELISA plate
Kind of assay: direct ELISA on coated human TNF alpha, detection with biotinylated rabbit anti-ESBA105 antibody and streptavidin poly-HRP, OD 450 nm. As to the method:
Binding of ESBA105 and its derivatives was assessed by a direct ELISA. Human TNF alpha (PeproTech EC Ltd) was coated on a 96-well microtitre plate and then blocked using BSA (bovine serum albumin). ESBA105 and ESBA105 derivates were tested at concentrations of 50 nM, 12.5 nM, 3.13 nM, 1.56 nM, 0.78 nM, 0.39 nM, 0.20 nM, 0.10 nM and 0.05 nM. Binding of ESBA105 and its derivatives to human TNF alpha was visualized by the subsequent addition of a biotinylated rabbit polyclonal anti-ESBA105 antibody (AK3A, generated at ESBATech), streptavidin Poly HRP and a chromogenic substrate (POD). The product of this reaction was detected by measurement of the optical densitiy (OD) at […] using a spectrophotometer. Data were analyzed using a 4-parameter logistic curve fit, and EC₅₀ values were calculated from the dose-response curves of the scFvs.
Background: ELISA stands for enzyme-linked immunosorbent assay.

Assay [1] concerns the target T2, recombinant human VEGF165 (human, UniProt P15692-4 27-191).
T2 construct: Amine-coupled to a CM4 sensor chip; also called hVEGF165
Kind of assay: SPR, BIAcore T100, hVEGF165 immobilized, 1:1 fit (FIG. 7A). The source says:
(§1) For binding affinity measurements, surface Plasmon resonance measurements with BIAcore™-T100 were employed. In these experiments, purified Escherichia coli-expressed recombinant human VEGF₁₆₅ (PeproTech EC Ltd) was used. Carboxymethylated dextran biosensor chips (CM4, GE Healthcare) were activated with N-ethyl-N′-(3-dimethylaminopropyl)carbodiimide hydrochloride and N-hydroxysuccinimide according to the supplier's instructions. Human VEGF₁₆₅ was coupled to 1 of the 4 different flow cells on a CM4 sensor chip using a standard amine-coupling procedure. The range of responses obtained with the immobilized hVEGF₁₆₅ molecule after coupling and blocking was approximately 120-140 response units (RU). The 4th flow cell of each chip was treated similarly except no proteins were immobilized prior to blocking, and the flow cell was used as in-line reference. Various concentrations of anti-VEGF scFvs (20 nM, 10 nM, 5 nM, 2.5 nM, 1.25 nM, 0.63 nM, 0.31 nM and 0.16 nM) in HBS-EP buffer (0.01 M HEPES, pH 7.4, 0.15 M NaCl, 3 mM EDTA, 0.005% surfactant P20) were injected into the flow cells at a flow rate of 30 μl/min for 5 min. Dissociation of the anti-VEGF scFv from the VEGF on the CM4 chip was allowed to proceed for 10 min at 25° C. Sensorgrams were generated for each anti-VEGF scFv sample after in-line reference cell correction followed by buffer sample subtraction. The apparent dissociation rate constant (kd), the apparent association rate constant (kₐ) and the apparent dissociation equilibrium constant (KD) were calculated using one-to-one Langmuir binding model with BlAcore T100 evaluation Software version 1.1.
(Surface plasmon resonance follows binding to a sensor surface in real time, without labels.)

Assay [2] deals with T2, recombinant human VEGF165. Nature of the assay: SPR, BIAcore T100, hVEGF165 immobilized.
Description: as §1, with “Dissociation of the anti-VEGF scFv from the VEGF on the CM4 chip was allowed to proceed for 10 min at 25° C. Sensorgrams were generated for each anti-VEGF scFv sample after in-line reference cell correction followed by buffer sample subtraction.” left out

The target of assay [3] is T2, recombinant human VEGF165. Nature of the assay: SPR, BIAcore T100, hVEGF165 immobilized, 1:1 fit (FIG. 7B).
Description: as §1, with “Dissociation of the anti-VEGF scFv from the VEGF on the CM4 chip was allowed to proceed for 10 min at 25° C. Sensorgrams were generated for each anti-VEGF scFv sample after in-line reference cell correction followed by buffer sample subtraction.” left out

T2 sequence (P15692 other isoform, or with tags, fused parts or gaps limits assumed): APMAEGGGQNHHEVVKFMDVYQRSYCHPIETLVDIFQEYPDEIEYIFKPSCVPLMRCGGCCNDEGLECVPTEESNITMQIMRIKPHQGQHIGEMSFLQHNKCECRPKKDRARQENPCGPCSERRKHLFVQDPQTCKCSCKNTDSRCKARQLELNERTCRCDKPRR
T1 sequence (P01375 77-233 limits assumed): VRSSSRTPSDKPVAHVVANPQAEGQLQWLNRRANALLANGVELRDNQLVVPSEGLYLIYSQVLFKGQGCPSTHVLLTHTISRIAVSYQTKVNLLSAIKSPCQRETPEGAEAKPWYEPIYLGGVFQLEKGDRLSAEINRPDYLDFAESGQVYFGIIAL

B1: ESBA105 (scFv)
scFv: MADIVMTQSPSSLSASVGDRVTLTCTASQSVSNDVVWYQQRPGKAPKLLIYSAFNRYTGVPSRFSGRGYGTDFTLTISSLQPEDVAVYYCQQDYNSPRTFGQGTKLEVKRGGGGSGGGGSGGGGSSGGGSQVQLVQSGAEVKKPGASVKVSCTASGYTFTHYGMNWVRQAPGKGLEWMGWINTYTGEPTYADKFKDRFTFSLETSASTVYMELTSLTSDDTAVYYCARERGDAMDYWGQGTLVTVSS
notes: Untreated scFv (VL-linker-VH), made in E. coli; also called ESBA105 Normal linker; naked ESBA105
As to B1, the “EC50 (read off the curve)” value in the assay with Human TNF alpha was around 1000 pM.

B2: ESBA105-SS-linker (scFv)
scFv: MADIVMTQSPSSLSASVGDRVTLTCTASQSVSNDVVWYQQRPGKAPKLLIYSAFNRYTGVPSRFSGRGYGTDFTLTISSLQPEDVAVYYCQQDYNSPRTFGQGTKLEVKRGGGGSGGGGSCGGGSGGGCGGGGSGGGGSQVQLVQSGAEVKKPGASVKVSCTASGYTFTHYGMNWVRQAPGKGLEWMGWINTYTGEPTYADKFKDRFTFSLETSASTVYMELTSLTSDDTAVYYCARERGDAMDYWGQGTLVTVSS
notes: un-pegylated
With B2, the “EC50 (read off the curve)” value with Human TNF alpha was around 1000 pM.

B3: ESBA903 (scFv)
scFv: MEIVMTQSPSTLSASVGDRVIITCQASEIIHSWLAWYQQKPGKAPKLLIYLASTLASGVPSRFSGSGSGAEFTLTISSLQPDDFATYYCQNVYLASTNGANFGQGTKLTVLGGGGGSGGGGSGGGGSGGGGSEVQLVESGGGLVQPGGSLRLSCTASGFSLTDYYYMTWVRQAPGKGLEWVGFIDPDDDPYYATWAKGRFTISRDTSKNTVYLQMNSLRAEDTAVYYCAGGDHNSGWGLDIWGQGTLVTVSS
notes: Anti-VEGF scFv; also called ESBA903 Normal linker; unmodified ESBA903
For the molecule B3, in assay [1], the Kd was 56.1 pM, the koff was 4.31e-05 s⁻¹ and the kon was 768000 M⁻¹ s⁻¹.

B4: ESBA903 SS Pep1 linker (scFv)
scFv: MEIVMTQSPSTLSASVGDRVIITCQASEIIHSWLAWYQQKPGKAPKLLIYLASTLASGVPSRFSGSGSGAEFTLTISSLQPDDFATYYCQNVYLASTNGANFGQGTKLTVLGGGGGSGGGGSCGAHWQFNALTVRCGGGGSGGGGSEVQLVESGGGLVQPGGSLRLSCTASGFSLTDYYYMTWVRQAPGKGLEWVGFIDPDDDPYYATWAKGRFTISRDTSKNTVYLQMNSLRAEDTAVYYCAGGDHNSGWGLDIWGQGTLVTVSS
notes: also called ESBA903-Pep1
On to B4, for which, in assay [2], the Kd was found to be 44.4 pM. Further, in assay [3], the dissociation rate constant (koff) was 5.03e-05 s⁻¹ and the kon turned out to be 1.13e+06 M⁻¹ s⁻¹.

As a reminder, the EC50 (read off the curve) is the concentration at which the effect is half-maximal. One may read the Kd as the constant that tells how readily two partners part at equilibrium. A word on the koff: it is a measure of how fast the partners let go of each other. One may read the kon as the second-order rate constant of association.
